Reference: patent EP1007090B1 (Biogen Idec Inc., dated 2009)
Like-named read-outs stand apart in the source and are kept apart here.

Assays:
B7.1/Ig fusion protein [1] = target: T1, B7.1/Ig fusion protein (human, UniProt P33681 35-242, limits assumed); assay: Scatchard analysis, binding to B7-Ig coated plates
T1 construct: Secreted by CHO cells; also called B7-Ig; 125I-B7.1Ig; not shown: human immunoglobulin CH2 and CH3
T1 sequence (looked up): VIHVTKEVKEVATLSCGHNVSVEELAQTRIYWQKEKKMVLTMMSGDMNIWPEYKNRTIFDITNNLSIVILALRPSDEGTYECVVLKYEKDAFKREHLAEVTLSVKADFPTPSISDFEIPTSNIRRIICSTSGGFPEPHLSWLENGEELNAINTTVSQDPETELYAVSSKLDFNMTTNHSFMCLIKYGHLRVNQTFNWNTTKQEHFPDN

B7.1/Ig fusion protein [2] = target: T1, B7.1/Ig fusion protein; assay: Scatchard analysis, binding to B7-Ig coated plates; remark: listed apart in the source

Kd (B7.1/Ig fusion protein [1]): ~10.7 nM
Kd (B7.1/Ig fusion protein [2]): ~10.7 nM
B1: monkey monoclonal antibody 7B6 (antibody, V domains shown)
VH: EVQLVESGGGLVQPGGSLRVSCAVSGFTFSDHYMYWFRQAPGKGPEWVGFIRNKPNGGTTEYAASVKDRFTISRDDSKSIAYLQMSSLKIEDTAVYYCTTSYISHCRGGVCYGGYFEFWGQGALVTVSS
VL: EVVMTQSPLSLPITPGEPASISCRSSQSLKHSNGDTFLSWYQQKPGQPPRLLIYKVSNRDSGVPDRFSGSGAGTDFTLKISAVEAEDVGVYFCGQGTRTPPTFGGGTKVEIK
